# According to patent US20140087995A1 (published 2014):
# Numbered stars: 1 amine (or outer) side, 2 acyl side, 3 side chain; on linkers, the order of the positions; unused ones are H or OH. Bridge positions count the residues as written; N and C are the ends. Side chains are listed from the residue outwards. Ends that are not written are not given here. * marks the point of attachment. C20 diacid = O=C(O)CCCCCCCCCCCCCCCCCCC(=O)*; C16 diacid = O=C(O)CCCCCCCCCCCCCCC(=O)*; γGlu = O=C(O)[C@H](CCC(=O)[*:2])N[*:1]; AEEA = NCCOCCOCC(=O)O
# T1: human amylin receptor (human, UniProt P30988 25-474; O60896 24-148, limits assumed)
# T1 construct: whole, on cells; Calcitonin receptor plus RAMP-3 gives the amylin 3(a) receptor; membranes of Amylin 3(a)/CRE-luc cells were used; also called hAmylin-R; hAmylinR
# T1 sequence (looked up) 1: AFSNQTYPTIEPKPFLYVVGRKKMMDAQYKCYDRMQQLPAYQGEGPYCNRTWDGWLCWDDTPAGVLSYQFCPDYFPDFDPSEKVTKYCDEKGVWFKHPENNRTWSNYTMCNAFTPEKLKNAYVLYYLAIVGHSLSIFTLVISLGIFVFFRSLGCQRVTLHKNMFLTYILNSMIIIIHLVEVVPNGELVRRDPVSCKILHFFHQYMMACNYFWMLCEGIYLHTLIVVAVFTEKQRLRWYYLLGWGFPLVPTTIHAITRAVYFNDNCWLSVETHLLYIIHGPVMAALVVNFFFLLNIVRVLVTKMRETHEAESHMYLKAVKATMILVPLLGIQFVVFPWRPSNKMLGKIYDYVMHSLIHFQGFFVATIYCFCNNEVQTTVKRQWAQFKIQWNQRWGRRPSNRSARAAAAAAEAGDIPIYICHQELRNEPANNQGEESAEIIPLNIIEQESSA
# T1 sequence (looked up) 2: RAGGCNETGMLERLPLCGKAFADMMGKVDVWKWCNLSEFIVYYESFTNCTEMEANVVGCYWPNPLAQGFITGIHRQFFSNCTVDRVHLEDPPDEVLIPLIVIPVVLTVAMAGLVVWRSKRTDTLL
# Target: T1, human amylin receptor
# Assay: SPA competition binding, displacement of 125I-rat amylin from membranes with human amylin 3(a) receptor (Assay V)
# Method in brief: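 One-site competition analysis of SPA counts yielded IC₅₀ as a measure of affinity. Membranes were at 35 ng/μL final; incubation was 120 min at 25° C, pH 7.4.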
row,IC50 [nM],Binder
1,0.088,"K([AEEA-γGlu-C20 diacid])CNTATCATQRLAHFLRHSSPNFGAIPSSTNVGPNTY-NH2 (disulfide 2-7; N-terminus assumed; SMILES CC[C@H](C)[C@H](NC(=O)[C@H](C)NC(=O)CNC(=O)[C@H](Cc1ccccc1)NC(=O)[C@H](CC(N)=O)NC(=O)[C@@H]1CCCN1C(=O)[C@H](CO)NC(=O)[C@H](CO)NC(=O)[C@H](Cc1c[nH]cn1)NC(=O)[C@H](CCCNC(=N)N)NC(=O)[C@H](CC(C)C)NC(=O)[C@H](Cc1ccccc1)NC(=O)[C@H](Cc1c[nH]cn1)NC(=O)[C@H](C)NC(=O)[C@H](CC(C)C)NC(=O)[C@H](CCCNC(=N)N)NC(=O)[C@H](CCC(N)=O)NC(=O)[C@@H](NC(=O)[C@H](C)NC(=O)[C@@H]1CSSC[C@H](NC(=O)[C@@H](N)CCCCNC(=O)COCCOCCNC(=O)CC[C@H](NC(=O)CCCCCCCCCCCCCCCCCCC(=O)O)C(=O)O)C(=O)N[C@@H](CC(N)=O)C(=O)N[C@@H]([C@@H](C)O)C(=O)N[C@@H](C)C(=O)N[C@@H]([C@@H](C)O)C(=O)N1)[C@@H](C)O)C(=O)N1CCC[C@H]1C(=O)N[C@@H](CO)C(=O)N[C@@H](CO)C(=O)N[C@H](C(=O)N[C@@H](CC(N)=O)C(=O)N[C@H](C(=O)NCC(=O)N1CCC[C@H]1C(=O)N[C@@H](CC(N)=O)C(=O)N[C@H](C(=O)N[C@@H](Cc1ccc(O)cc1)C(N)=O)[C@@H](C)O)C(C)C)[C@@H](C)O, also called 14H, 17R, 21P, 27P, 34P)"
2,0.133,"K([AEEA-γGlu-C20 diacid])CNTATCATQRLAHFLRHSSPNFGAIPSSTNVGSNTY-NH2 (disulfide 2-7; N-terminus assumed; SMILES CC[C@H](C)[C@H](NC(=O)[C@H](C)NC(=O)CNC(=O)[C@H](Cc1ccccc1)NC(=O)[C@H](CC(N)=O)NC(=O)[C@@H]1CCCN1C(=O)[C@H](CO)NC(=O)[C@H](CO)NC(=O)[C@H](Cc1c[nH]cn1)NC(=O)[C@H](CCCNC(=N)N)NC(=O)[C@H](CC(C)C)NC(=O)[C@H](Cc1ccccc1)NC(=O)[C@H](Cc1c[nH]cn1)NC(=O)[C@H](C)NC(=O)[C@H](CC(C)C)NC(=O)[C@H](CCCNC(=N)N)NC(=O)[C@H](CCC(N)=O)NC(=O)[C@@H](NC(=O)[C@H](C)NC(=O)[C@@H]1CSSC[C@H](NC(=O)[C@@H](N)CCCCNC(=O)COCCOCCNC(=O)CC[C@H](NC(=O)CCCCCCCCCCCCCCCCCCC(=O)O)C(=O)O)C(=O)N[C@@H](CC(N)=O)C(=O)N[C@@H]([C@@H](C)O)C(=O)N[C@@H](C)C(=O)N[C@@H]([C@@H](C)O)C(=O)N1)[C@@H](C)O)C(=O)N1CCC[C@H]1C(=O)N[C@@H](CO)C(=O)N[C@@H](CO)C(=O)N[C@H](C(=O)N[C@@H](CC(N)=O)C(=O)N[C@H](C(=O)NCC(=O)N[C@@H](CO)C(=O)N[C@@H](CC(N)=O)C(=O)N[C@H](C(=O)N[C@@H](Cc1ccc(O)cc1)C(N)=O)[C@@H](C)O)C(C)C)[C@@H](C)O, also called 14H, 17R, 21P, 27P)"
3,0.666,"K([AEEA-γGlu-C20 diacid])CNTATCATQRLATFLRHSSPNFGAIPSSTPVGSNTY-NH2 (disulfide 2-7; N-terminus assumed; SMILES CC[C@H](C)[C@H](NC(=O)[C@H](C)NC(=O)CNC(=O)[C@H](Cc1ccccc1)NC(=O)[C@H](CC(N)=O)NC(=O)[C@@H]1CCCN1C(=O)[C@H](CO)NC(=O)[C@H](CO)NC(=O)[C@H](Cc1c[nH]cn1)NC(=O)[C@H](CCCNC(=N)N)NC(=O)[C@H](CC(C)C)NC(=O)[C@H](Cc1ccccc1)NC(=O)[C@@H](NC(=O)[C@H](C)NC(=O)[C@H](CC(C)C)NC(=O)[C@H](CCCNC(=N)N)NC(=O)[C@H](CCC(N)=O)NC(=O)[C@@H](NC(=O)[C@H](C)NC(=O)[C@@H]1CSSC[C@H](NC(=O)[C@@H](N)CCCCNC(=O)COCCOCCNC(=O)CC[C@H](NC(=O)CCCCCCCCCCCCCCCCCCC(=O)O)C(=O)O)C(=O)N[C@@H](CC(N)=O)C(=O)N[C@@H]([C@@H](C)O)C(=O)N[C@@H](C)C(=O)N[C@@H]([C@@H](C)O)C(=O)N1)[C@@H](C)O)[C@@H](C)O)C(=O)N1CCC[C@H]1C(=O)N[C@@H](CO)C(=O)N[C@@H](CO)C(=O)N[C@H](C(=O)N1CCC[C@H]1C(=O)N[C@H](C(=O)NCC(=O)N[C@@H](CO)C(=O)N[C@@H](CC(N)=O)C(=O)N[C@H](C(=O)N[C@@H](Cc1ccc(O)cc1)C(N)=O)[C@@H](C)O)C(C)C)[C@@H](C)O, also called 14T, 17R, 21P, 27P, 31P)"
4,0.791,"K([AEEA-γGlu-C20 diacid])CNTATCATQRLAKFLRHSSPNFGAIPSSTPVGSNTY-NH2 (disulfide 2-7; N-terminus assumed; SMILES CC[C@H](C)[C@H](NC(=O)[C@H](C)NC(=O)CNC(=O)[C@H](Cc1ccccc1)NC(=O)[C@H](CC(N)=O)NC(=O)[C@@H]1CCCN1C(=O)[C@H](CO)NC(=O)[C@H](CO)NC(=O)[C@H](Cc1c[nH]cn1)NC(=O)[C@H](CCCNC(=N)N)NC(=O)[C@H](CC(C)C)NC(=O)[C@H](Cc1ccccc1)NC(=O)[C@H](CCCCN)NC(=O)[C@H](C)NC(=O)[C@H](CC(C)C)NC(=O)[C@H](CCCNC(=N)N)NC(=O)[C@H](CCC(N)=O)NC(=O)[C@@H](NC(=O)[C@H](C)NC(=O)[C@@H]1CSSC[C@H](NC(=O)[C@@H](N)CCCCNC(=O)COCCOCCNC(=O)CC[C@H](NC(=O)CCCCCCCCCCCCCCCCCCC(=O)O)C(=O)O)C(=O)N[C@@H](CC(N)=O)C(=O)N[C@@H]([C@@H](C)O)C(=O)N[C@@H](C)C(=O)N[C@@H]([C@@H](C)O)C(=O)N1)[C@@H](C)O)C(=O)N1CCC[C@H]1C(=O)N[C@@H](CO)C(=O)N[C@@H](CO)C(=O)N[C@H](C(=O)N1CCC[C@H]1C(=O)N[C@H](C(=O)NCC(=O)N[C@@H](CO)C(=O)N[C@@H](CC(N)=O)C(=O)N[C@H](C(=O)N[C@@H](Cc1ccc(O)cc1)C(N)=O)[C@@H](C)O)C(C)C)[C@@H](C)O, also called 14K, 17R, 21P, 27P, 31P)"
5,0.104,"K([AEEA-γGlu-C20 diacid])CNTATCATQRLASFLRHSSPNFGAIPSSTPVGSNTY-NH2 (disulfide 2-7; N-terminus assumed; SMILES CC[C@H](C)[C@H](NC(=O)[C@H](C)NC(=O)CNC(=O)[C@H](Cc1ccccc1)NC(=O)[C@H](CC(N)=O)NC(=O)[C@@H]1CCCN1C(=O)[C@H](CO)NC(=O)[C@H](CO)NC(=O)[C@H](Cc1c[nH]cn1)NC(=O)[C@H](CCCNC(=N)N)NC(=O)[C@H](CC(C)C)NC(=O)[C@H](Cc1ccccc1)NC(=O)[C@H](CO)NC(=O)[C@H](C)NC(=O)[C@H](CC(C)C)NC(=O)[C@H](CCCNC(=N)N)NC(=O)[C@H](CCC(N)=O)NC(=O)[C@@H](NC(=O)[C@H](C)NC(=O)[C@@H]1CSSC[C@H](NC(=O)[C@@H](N)CCCCNC(=O)COCCOCCNC(=O)CC[C@H](NC(=O)CCCCCCCCCCCCCCCCCCC(=O)O)C(=O)O)C(=O)N[C@@H](CC(N)=O)C(=O)N[C@@H]([C@@H](C)O)C(=O)N[C@@H](C)C(=O)N[C@@H]([C@@H](C)O)C(=O)N1)[C@@H](C)O)C(=O)N1CCC[C@H]1C(=O)N[C@@H](CO)C(=O)N[C@@H](CO)C(=O)N[C@H](C(=O)N1CCC[C@H]1C(=O)N[C@H](C(=O)NCC(=O)N[C@@H](CO)C(=O)N[C@@H](CC(N)=O)C(=O)N[C@H](C(=O)N[C@@H](Cc1ccc(O)cc1)C(N)=O)[C@@H](C)O)C(C)C)[C@@H](C)O, also called 14S, 17R, 21P, 27P, 31P)"
6,0.58,"K([γGlu-C16 diacid])CNTATCATQRLANFLRHSSPNFGAIPSSTNVGHNTY-NH2 (disulfide 2-7; N-terminus assumed; SMILES CC[C@H](C)[C@H](NC(=O)[C@H](C)NC(=O)CNC(=O)[C@H](Cc1ccccc1)NC(=O)[C@H](CC(N)=O)NC(=O)[C@@H]1CCCN1C(=O)[C@H](CO)NC(=O)[C@H](CO)NC(=O)[C@H](Cc1c[nH]cn1)NC(=O)[C@H](CCCNC(=N)N)NC(=O)[C@H](CC(C)C)NC(=O)[C@H](Cc1ccccc1)NC(=O)[C@H](CC(N)=O)NC(=O)[C@H](C)NC(=O)[C@H](CC(C)C)NC(=O)[C@H](CCCNC(=N)N)NC(=O)[C@H](CCC(N)=O)NC(=O)[C@@H](NC(=O)[C@H](C)NC(=O)[C@@H]1CSSC[C@H](NC(=O)[C@@H](N)CCCCNC(=O)CC[C@H](NC(=O)CCCCCCCCCCCCCCC(=O)O)C(=O)O)C(=O)N[C@@H](CC(N)=O)C(=O)N[C@@H]([C@@H](C)O)C(=O)N[C@@H](C)C(=O)N[C@@H]([C@@H](C)O)C(=O)N1)[C@@H](C)O)C(=O)N1CCC[C@H]1C(=O)N[C@@H](CO)C(=O)N[C@@H](CO)C(=O)N[C@H](C(=O)N[C@@H](CC(N)=O)C(=O)N[C@H](C(=O)NCC(=O)N[C@@H](Cc1c[nH]cn1)C(=O)N[C@@H](CC(N)=O)C(=O)N[C@H](C(=O)N[C@@H](Cc1ccc(O)cc1)C(N)=O)[C@@H](C)O)C(C)C)[C@@H](C)O, also called 17R, 21P, 27P, 34H) [N^ε1-[(4S)-4-carboxy-4-(15-carboxypentadecanoylamino)butanoyl]-[Arg17,Pro21,Pro27,His34]-h-amylin]"
